According to the supplement of paper PMC9233669:
Fewer inactive variants are shown than the library holds.

How the values were obtained:
biotinyl-Leu-oxazolone = experiment: self-aminoacylation, catalytic enhancement (BLO) (fold over background); higher = more active; k-Seq, kA / k0A0; sequences stand for … in GGGAAUGGAUCCACAUCUACGAAUUC…UUCACUGCAGACUUGACGAAGCUG
Outline: (§1)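 Working in 50 μL HEPES/NaCl/KCl/MgCl2/CaCl2 buffer with 5% acetonitrile at pH 6.9–7.0, mutagenized RNA pools (0.43 μM; 21-nt variable region) were reacted with 2–1250 μM of each biotinyl-aminoacyl-oxazolone for 90 minutes at room temperature. Streptavidin capture followed, with quantification by triplicate qPCR and Illumina sequencing. Catalytic enhancement is reported as median kA over the uncatalyzed rate, the low-activity peak of a bimodal Gaussian fit to the data.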

biotinyl-Phe-oxazolone = experiment: self-aminoacylation, catalytic enhancement (BFO) (fold over background); higher = more active; k-Seq, kA / k0A0; sequences stand for … in GGGAAUGGAUCCACAUCUACGAAUUC…UUCACUGCAGACUUGACGAAGCUG
Outline: as §1

biotinyl-Met-oxazolone = experiment: self-aminoacylation, catalytic enhancement (BMO) (fold over background); higher = more active; k-Seq, kA / k0A0; sequences stand for … in GGGAAUGGAUCCACAUCUACGAAUUC…UUCACUGCAGACUUGACGAAGCUG
Outline: as §1

biotinyl-Val-oxazolone = experiment: self-aminoacylation, catalytic enhancement (BVO) (fold over background); higher = more active; k-Seq, kA / k0A0; sequences stand for … in GGGAAUGGAUCCACAUCUACGAAUUC…UUCACUGCAGACUUGACGAAGCUG
Outline: as §1

biotinyl-Trp-oxazolone = experiment: self-aminoacylation, catalytic enhancement (BWO) (fold over background); higher = more active; k-Seq, kA / k0A0; sequences stand for … in GGGAAUGGAUCCACAUCUACGAAUUC…UUCACUGCAGACUUGACGAAGCUG
Outline: as §1

biotinyl-Ile-oxazolone = experiment: self-aminoacylation, catalytic enhancement (BIO) (fold over background); higher = more active; k-Seq, kA / k0A0; sequences stand for … in GGGAAUGGAUCCACAUCUACGAAUUC…UUCACUGCAGACUUGACGAAGCUG
Outline: as §1

Sequence | self-aminoacylation (biotinyl-Leu-oxazolone) | self-aminoacylation (biotinyl-Phe-oxazolone) | self-aminoacylation (biotinyl-Met-oxazolone) | self-aminoacylation (biotinyl-Val-oxazolone) | self-aminoacylation (biotinyl-Trp-oxazolone) | self-aminoacylation (biotinyl-Ile-oxazolone)
AAUACCCUAGUCAUCGAGUGA [Fam2.1 aminoacylation ribozyme variant] | 4.49 | 15.4 | 4.24 | 2.64 | 5.18 | 2.46
AAUACCCUGCUCAUCGAGUGA [Fam2.1 aminoacylation ribozyme variant] | 1.6 | 1.69 | 1.22 | 1.3 | 1.17 | 1.08
AAUACCCUGGUCAUCGAGCGA [Fam2.1 aminoacylation ribozyme variant] | 1.55 | 1.56 | 2.03 | 1.66 | 2.75 | 1.65
AAUACCCUGGUCAUUGAGUGA [Fam2.1 aminoacylation ribozyme variant] | 5.25 | 17.1 | 5.79 | 2.9 | 6.33 | 2.98
AAUCAACUAGGUCAUCGGGUG [Fam2.2 aminoacylation ribozyme variant] | 6.32 | 39.7 | 5.89 | 4.4 | 6.47 | 4.49
AAUCACCCAGGUCAUCGGGUG [Fam2.2 aminoacylation ribozyme variant] | 3.76 | 27.9 | 4.82 | 4.93 | 6.23 | 4.58
AAUCACCUAAGUCAUCGGGUG [Fam2.2 aminoacylation ribozyme variant] | 7.68 | 44.5 | 6.3 | 4.44 | 7.91 | 4.89
AAUCACCUAGGUCAACGGGUG [Fam2.2 aminoacylation ribozyme variant] | 3.39 | 10.3 | 2.91 | 2.77 | 3.32 | 2.29
AAUCACCUAGGUCAUCCGGUG [Fam2.2 aminoacylation ribozyme variant] | 6.61 | 50 | 5.22 | 4.15 | 6.07 | 4.59
AAUCACCUAGGUCAUCGGCUG [Fam2.2 aminoacylation ribozyme variant] | 2.14 | 10.9 | 3.21 | 2.34 | 2.68 | 2.3
AAUCACCUAGGUCAUCGGGUC [Fam2.2 aminoacylation ribozyme variant] | 1.37 | 7.16 | 1.81 | 1.63 | 1.21 | 1.79
AAUCACCUAGGUCAUCUGGUG [Fam2.2 aminoacylation ribozyme variant] | 2.27 | 11.2 | 2.08 | 1.67 | 2.52 | 1.96
AAUCACCUAGGUCGUCGGGUG [Fam2.2 aminoacylation ribozyme variant] | 3.25 | 7.97 | 2.21 | 2.19 | 1.34 | 2.12
AAUCACCUGGGUCAUCGGGUG [Fam2.2 aminoacylation ribozyme variant] | 4.47 | 31.9 | 4.32 | 6.36 | 7.63 | 4.12
AAUCACUUAGGUCAUCGGGUG [Fam2.2 aminoacylation ribozyme variant] | 7.59 | 43 | 7.21 | 4.61 | 8.45 | 5.09
AAUGCCCUGGUCAUCGAGUGA [Fam2.1 aminoacylation ribozyme variant] | 9.96 | 33.9 | 9.57 | 5.85 | 11.8 | 4.61
AAUUACCUAGGUCAUCGGGUG [Fam2.2 aminoacylation ribozyme variant] | 6.53 | 38 | 6.04 | 4.24 | 7.49 | 4.3
AAUUAUGCUAAUAGUCGCAAG [Fam3.1 aminoacylation ribozyme variant] | 1.81 | 3.25 | 1.46 | 1.65 | 2.57 | 2.21
AAUUUUGCUAAUAGUCGCAGG [Fam3.1 aminoacylation ribozyme variant] | 1.98 | 2.65 | 1.76 | 1.83 | 2.05 | 1.89
AAUUUUGCUAAUAGUCGGAAG [Fam3.1 aminoacylation ribozyme variant] | 1.22 | 3.1 | 1.13 | 1.03 | 1.2 | 1.23
ACACACCUAGGUCAUCGGGUG [Fam2.2 aminoacylation ribozyme variant] | 3.61 | 19 | 3.51 | 3.19 | 4.91 | 2.98
ACACACGUCAAGCAAUCGGUC [Fam1B.1 aminoacylation ribozyme variant] | 2.14 | 3.48 | 1.96 | 2.04 | 2.55 | 1.88
ACACACUGCAAGCAAUCGGUC [Fam1B.1 aminoacylation ribozyme variant] | 1.48 | 1.36 | 1.23 | 1.33 | 1.73 | 1.43
ACACACUUAAAGCAAUCGGUC [Fam1B.1 aminoacylation ribozyme variant] | 0.923 | 1.23 | 0.917 | 1.11 | 0.971 | 1.08
ACACACUUCAAACAAUCGGUC [Fam1B.1 aminoacylation ribozyme variant] | 2.39 | 65.1 | 1.38 | 1.79 | 40.6 | 1.73
ACACACUUCAAGAAAUCGGUC [Fam1B.1 aminoacylation ribozyme variant] | 1.32 | 5.64 | 1.41 | 1.27 | 4.86 | 1.24
